Test results as given in patent EP4707292A2 (The University of North Carolina at Chapel Hill, dated 2026).

Legend:
[1] = target: T1, Adeno-associated virus 9 (AAV9) virion (adeno-associated virus 9); assay: co-IP with ADK9/LC-MS/MS, AAV9 + human serum vs control
T1 construct: Intact virion; capsid of VP1, VP2, VP3; also called AAV9/luc; AAV9 capsid

[2] = target: T2, Adeno-associated virus 8 (AAV8) virion (adeno-associated virus 8); assay: co-IP/LC-MS/MS, AAV8 + human serum vs PBS control
T2 construct: Intact virion with packaged vector genome; capsid of 60 subunits (VP1, VP2, VP3, overlapping products of one cap gene); also called AAV8/luc; AAV8 capsid

Binder	fold change [1] [fold]	fold change [2] [fold]
Beta-2-glycoprotein 1 (other, also called APOH) GRTCPKPDDLPFSTVVPLKTFYEPGEEITYSCKPGYVSRGGMRKFICPLTGLWPINTLKCTPRVCPFAGILENGAVRYTTFEYPNTISFSCNTGFYLNGADSAKCTEEGKWSPELPVCAPIICPPPSIPTFATLRVYKPSAGNNSLYRDTAVFECLPQHAMFGNDTITCTTHGNWTKLPECREVKCPFPSRPDNGFVNYPAKPTLYYKDKATFGCHDGYSLDGPEEIECTKLGNWSAMPSCKASCKVPVKKATVVYQGERVKIQEKFKNGMLHGDKVSFFCKNKEKKCSYTEDAQCIDGTIEVPKCFKEHSSLAFWKTDASDVKPC	3.43	3.43
CD5 antigen-like (other, also called CD5L) SPSGVRLVGGLHRCEGRVEVEQKGQWGTVCDDGWDIKDVAVLCRELGCGAASGTPSGILYEPPAEKEQKVLIQSVSCTGTEDTLAQCEQEEVYDCSHDEDAGASCENPESSFSPVPEGVRLADGPGHCKGRVEVKHQNQWYTVCQTGWSLRAAKVVCRQLGCGRAVLTQKRCNKHAYGRKPIWLSQMSCSGREATLQDCPSGPWGKNTCNHDEDTWVECEDPFDLRLVGGDNLCSGRLEVLHKGVWGSVCDDNWGEKEDQVVCKQLGCGKSLSPSFRDRKCYGPGVGRIWLDNVRCSGEEQSLEQCQHRFWGFHDCTHQEDVAVICSG	1.23	1.23
Kininogen-1 (other, also called KNG1) QESQSEEIDCNDKDLFKAVDAALKKYNSQNQSNNQFVLYRITEATKTVGSDTFYSFKYEIKEGDCPVQSGKTWQDCEYKDAAKAATGECTATVGKRSSTKFSVATQTCQITPAEGPVVTAQYDCLGCVHPISTQSPDLEPILRHGIQYFNNNTQHSSLFMLNEVKRAQRQVVAGLNFRITYSIVQTNCSKENFLFLTPDCKSLWNGDTGECTDNAYIDIQLRIASFSQNCDIYPGKDFVQPPTKICVGCPRDIPTNSPELEETLTHTITKLNAENNATFYFKIDNVKKARVQVVAGKKYFIDFVARETTCSKESNEELTESCETKKLGQSLDCNAEVYVVPWEKKIYPTVNCQPLGMISLMKRPPGFSPFRSSRIGEIKEETTVSPPHTSMAPAQDEERDSGKEQGHTRRHDWGHEKQRKHNLGHGHKHERDQGHGHQRGHGLGHGHEQQHGLGHGHKFKLDDDLEHQGGHVLDHGHKHKHGHGHGKHKNKGKKNGKHNGWKTEHLASSSEDSTTPSAQTQEKTEGPTPIPSLAKPGVTVTFSDFQDSDLIATMMPPISPAPIQSDDDWIPDIQIDPNGLSFNPISDFPDTTSPKCPGRPWKSVSEINPTTQMKESYYFDLTDGLS	0.419	0.419
Hemopexin (other, also called HPX) TPLPPTSAHGNVAEGETKPDPDVTERCSDGWSFDATTLDDNGTMLFFKGEFVWKSHKWDRELISERWKNFPSPVDAAFRQGHNSVFLIKGDKVWVYPPEKKEKGYPKLLQDEFPGIPSPLDAAVECHRGECQAEGVLFFQGDREWFWDLATGTMKERSWPAVGNCSSALRWLGRYYCFQGNQFLRFDPVRGEVPPRYPRDVRDYFMPCPGRGHGHRNGTGHGNSTHHGPEYMRCSPHLVLSALTSDNHGATYAFSGTHYWRLDTSRDGWHSWPIAHQWPQGPSAVDAAFSWEEKLYLVQGTQVYVFLTKGGYTLVSGYPKRLEKEVGTPHGIILDSVDAAFICPGSSRLHIMAGRRLWWLDLKSGAQATWTELPWPHEKVDGALCMEKSLGPNSCSANGPGLYLIHGPNLYCYSDVEKLNAAKALPQPQNVTSLLGCTH	30.7	30.7
Isoform 2 of Haptoglobin-related protein (other, also called HPR) MHVCVCVCVCVYMPVCVDACMCCEAGRPAFRSFLFSLCSDLGAVISLLLWGRQLFALYSGNDVTDISDDRFPKPPEIANGYVEHLFRYQCKNYYRLRTEGDGVYTLNDKKQWINKAVGDKLPECEAVCGKPKNPANPVQRILGGHLDAKGSFPWQAKMVSHHNLTTGATLINEQWLLTTAKNLFLNHSENATAKDIAPTLTLYVGKKQLVEIEKVVLHPNYHQVDIGLIKLKQKVLVNERVMPICLPSKNYAEVGRVGYVSGWGQSDNFKLTDHLKYVMLPVADQYDCITHYEGSTCPKWKAPKSPVGVQPILNEHTFCVGMSKYQEDTCYGDAGSAFAVHDLEEDTWYAAGILSFDKSCAVAEYGVYVKVTSIQHWVQKTIAEN	2.82	2.82
Ig gamma-3 chain C region (other, also called IGHG3) ASTKGPSVFPLAPCSRSTSGGTAALGCLVKDYFPEPVTVSWNSGALTSGVHTFPAVLQSSGLYSLSSVVTVPSSSLGTQTYTCNVNHKPSNTKVDKRVELKTPLGDTTHTCPRCPEPKSCDTPPPCPRCPEPKSCDTPPPCPRCPEPKSCDTPPPCPRCPAPELLGGPSVFLFPPKPKDTLMISRTPEVTCVVVDVSHEDPEVQFKWYVDGVEVHNAKTKPREEQYNSTFRVVSVLTVLHQDWLNGKEYKCKVSNKALPAPIEKTISKTKGQPREPQVYTLPPSREEMTKNQVSLTCLVKGFYPSDIAVEWESSGQPENNYNTTPPMLDSDGSFFLYSKLTVDKSRWQQGNIFSCSVMHEALHNRFTQKSLSLSPGK	6.33	6.33
Isoform 2 of Ig mu chain C region (other, also called IGHM) GSASAPTLFPLVSCENSPSDTSSVAVGCLAQDFLPDSITFSWKYKNNSDISSTRGFPSVLRGGKYAATSQVLLPSKDVMQGTDEHVVCKVQHPNGNKEKNVPLPVIAELPPKVSVFVPPRDGFFGNPRKSKLICQATGFSPRQIQVSWLREGKQVGSGVTTDQVQAEAKESGPTTYKVTSTLTIKESDWLGQSMFTCRVDHRGLTFQQNASSMCVPDQDTAIRVFAIPPSFASIFLTKSTKLTCLVTDLTTYDSVTISWTRQNGEAVKTHTNISESHPNATFSAVGEASICEDDWNSGERFTCTVTHTDLPSPLKQTISRPKGVALHRPDVYLLPPAREQLNLRESATITCLVTGFSPADVFVQWMQRGQPLSPEKYVTSAPMPEPQAPGRYFAHSILTVSEEEWNTGETYTCVVAHEALPNRVTERTVDKSTEGEVSADEEGFENLWATASTFIVLFLLSLFYSTTVTLFKVK	3	3
Apolipoprotein C-I (other, also called APOC1) TPDVSSALDKLKEFGNTLEDKARELISRIKQSELSAKMREWFSETFQKVKEKLKIDS	2	2
C4b-binding protein alpha chain (other, also called C4BPA) NCGPPPTLSFAAPMDITLTETRFKTGTTLKYTCLPGYVRSHSTQTLTCNSDGEWVYNTFCIYKRCRHPGELRNGQVEIKTDLSFGSQIEFSCSEGFFLIGSTTSRCEVQDRGVGWSHPLPQCEIVKCKPPPDIRNGRHSGEENFYAYGFSVTYSCDPRFSLLGHASISCTVENETIGVWRPSPPTCEKITCRKPDVSHGEMVSGFGPIYNYKDTIVFKCQKGFVLRGSSVIHCDADSKWNPSPPACEPNSCINLPDIPHASWETYPRPTKEDVYVVGTVLRYRCHPGYKPTTDEPTTVICQKNLRWTPYQGCEALCCPEPKLNNGEITQHRKSRPANHCVYFYGDEISFSCHETSRFSAICQGDGTWSPRTPSCGDICNFPPKIAHGHYKQSSSYSFFKEEIIYECDKGYILVGQAKLSCSYSHWSAPAPQCKALCRKPELVNGRLSVDKDQYVEPENVTIQCDSGYGVVGPQSITCSGNRTWYPEVPKCEWETPEGCEQVLTGKRLMQCLPNPEDVKMALEVYKLSLEIEQLELQRDSARQSTLDKEL	1.53	1.53
Glutathione peroxidase 3 (enzyme, also called GPX3) QSRGQEKSKMDCHGGISGTIYEYGALTIDGEEYIPFKQYAGKYVLFVNVASYUGLTGQYIELNALQEELAPFGLVILGFPCNQFGKQEPGENSEILPTLKYVRPGGGFVPNFQLFEKGDVNGEKEQKFYTFLKNSCPPTSELLGTSDRLFWEPMKVHDIRWNFEKFLVGPDGIPIMRWHHRTTVSNVKMDILSYMRRQAALGVKRK	2.74	2.74
Ig gamma-2 chain C region (other, also called IGHG2) ASTKGPSVFPLAPCSRSTSESTAALGCLVKDYFPEPVTVSWNSGALTSGVHTFPAVLQSSGLYSLSSVVTVPSSNFGTQTYTCNVDHKPSNTKVDKTVERKCCVECPPCPAPPVAGPSVFLFPPKPKDTLMISRTPEVTCVVVDVSHEDPEVQFNWYVDGVEVHNAKTKPREEQFNSTFRVVSVLTVVHQDWLNGKEYKCKVSNKGLPAPIEKTISKTKGQPREPQVYTLPPSREEMTKNQVSLTCLVKGFYPSDISVEWESNGQPENNYKTTPPMLDSDGSFFLYSKLTVDKSRWQQGNVFSCSVMHEALHNHYTQKSLSLSPGK	5.06	5.06
Protein fem-1 homolog A (other, also called FEM1A) MDLRTAVYNAARDGKLQLLQKLLSGRSREELDELTGEVAGGGTPLLIAARYGHLDVVEYLVDRCGASVEAGGSVHFDGETIEGAPPLWAASAAGHLDVVRSLLRRGASVNRTTRTNSTPLRAACFDGHLEVVRYLVGEHQADLEVANRHGHTCLMISCYKGHREIARYLLEQGAQVNRRSAKGNTALHDCAESGSLEILQLLLGCKARMERDGYGMTPLLAASVTGHTNIVEYLIQEQPGQEQVAGGEAQPGLPQEDPSTSQGCAQPQGAPCCSSSPEEPLNGESYESCCPTSREAAVEALELLGATYVDKKRDLLGALKHWRRAMELRHQGGEYLPKPEPPQLVLAYDYSREVNTTEELEALITDPDEMRMQALLIRERILGPSHPDTSYYIRYRGAVYADSGNFERCIRLWKYALDMQQSNLEPLSPMTASSFLSFAELFSYVLQDRAAKGSLGTQIGFADLMGVLTKGVREVERALQLPREPGDSAQFTKALAIILHLLYLLEKVECTPSQEHLKHQTVYRLLKCAPRGKNGFTPLHMAVDKDTTNVGRYPVGRFPSLHVVKVLLDCGADPDSRDFDNNTPLHIAAQNNCPAIMNALIEAGAHMDATNAFKKTAYELLDEKLLARGTMQPFNYVTLQCLAARALDKNKIPYKGFIPEDLEAFIELH	0.264	0.264
